# Test results: US9217139B2, “Extracellularly secreted nuclease” (JAPAN AGENCY FOR MARINE-EARTH SCIENCE AND TECHNOLOGY, priority 2010, dated 2015)
# B1: NucS: low-molecular-weight nucleolytic enzyme, about 17 to 21 kDa, secreted by Streptomyces sp. MBE174; SEQ ID NO. 3 (protein)
# chain: MPKLYARRRFAVLAALTGLIASAGLFHGPAASAALPTPVSAATARGYLASLKVAPENRTGYKRDLFPHWITQSGTCNTRETVLKRDGTNVVTDAACAATSGSWYSPFDGATWTAASDVDIDHLVPLAEAWDSGASAWTTAQRQAFANDLTRPQLLAVTDTVNQSKGDKDPAEWMPPRAAYHCTYVRAWVQVKYYYGLSVDTAEKTALTNRLAGC
# modifications: Streptmyces sp. MBE174
# B2: NucL: nucleolytic enzyme of about 66.5 kDa secreted by Streptomyces sp. MBE174; SEQ ID NO. 4 (protein)
# chain: MASQSVTRLAALTVAATCSAASVVVLGPPAHADSVRIHDIQGTTRISPYAGRQVADVPGVVTGVRDHGSSRGFWFQDPRPDDDPATSEGVFVFTGSAPGVEAGDAVTVSGTVSEFVPGGTASGNQSLTEITRPTVTVVSRGNPVPDPVVVSARSVPHAYAPAGDAAANGSVNALPLRPDRYALDYYESLEGMNVQVADARVVGATDPYTELWVTVKPGENASPRGGTVYGSRDAQNTGRLQIQTLGVPAGFPAADVGDTLAGATTGPLDYNQFGGYTLVARSLGTLTAGGLARETTREQHRDELSVATYNVENLDPSDGTFAAHAEAIVRNLRSPDIVSLEEIQDDNGATDDGTVTAGVTVGKLIDAVVAAGGPRYDWRSVDPVDKADGGQPGGNIRQVFLFDPRRVSFADRPGGDAVTATGVVKVRGKAALTHSPGRVDPANPAWLNSRKPLAGEFSFRGRTVFVIANHFASKGGDQGLTSQYQPPARSSETQRHLQATAVNTFVKQILAVQKNADVIALGDINDFEFSGTTERLEAGGALWSAVRSLPPGERYSYVYQGNSQVLDQILVSPSIRRGHLSYDSVHINAEFHDQISDHDPQVLRYRP
# modifications: Streptmyces sp. MBE174
# Columns and labels:
# Salmon sperm DNA = assay: standard specific activity measurement method (increase of absorbancy at 260 nm); type: biochemical; details: 37 degrees Celsius; for specific activity: purified enzyme, 30 minutes, 20 mM Tris/HCl pH 8.5, 1 mM MgCl2, 1 mM CaCl2
# Method: The specific activity of NucS was measured at 37 degrees Celsius in 20 mM of Tris/HCl at pH 8.5 that contains 1 mM of MgCl2 and 1 mM of CaCl2 (a measurement method under the condition described here is also referred to as a standard specific activity measurement method, hereinafter); the specific activity was 3.6×10^6 U/mg-protein, which was a very high level of specific activity. In this case, 1 U represents an amount of enzymes necessary to increase the absorbancy of 260 nm by one for 30 minutes when the enzymes works on the following as substrate: Salmon sperm DNA 1 mg/mL (manufactured by Invitrogen; Cat no. 15632-011). As a reference, as for NucS, when the specific activity of Benzonase (Registered Trademark), which was a commercially available nucleolytic enzyme that had the highest specific activity among those listed in a brochure, was measured under the conditions described in the brochure (37 degrees Celsius) with the use of the same substrate; the specific activity was 9.4×10^5 U/mg-protein. As a result, it became clear that the specific activity of NucS is about 3.8 times higher than that of Benzonase.
# (§1) The specific activity of NucL was 5.6×10^4 U/mg-protein at 37 degrees Celsius in 20 mM of Tris/HCl at pH 8.5 that contains 1 mM of MgCl2 and 1 mM of CaCl2. The isoelectric point was measured by using Novex (Registered Trademark) IEF pH-3-10 gel (manufactured by Invitrogen); and then pl was 7.0. Then, it was determined that a N-terminal amino acid sequence of the purified enzyme was DSVRIHDIQGTTR. The sequence matched 12 out of 13 amino acids of putative protein (putative secreted hydrolase) coded on a genome of Streptomyces scabiei 87.22, and of putative protein (large secreted protein) coded on a genome of S. avermitilis MA-4680.
# [1] = isoelectric point by Novex IEF pH-3-10 gel; type: physicochemical
# Method: The molecular weight was measured by gel filtration chromatography with the use of Superdex G75 (manufactured by GE Healthcare). An elution position corresponding to a molecular weight of about 16 kDa was confirmed as a peak top from a column. Since the value was much coincident with a molecular weight (about 17 to 21 kDa) of an enzyme produced on SDS-PAGE, it can be determined that NucS exists as monomer. The isoelectric point was measured by using Novex (Registered Trademark) IEF pH-3-10 gel (manufactured by Invitrogen); and pl was 10.
# as §1
# [2] = effects of temperature on enzyme activity; type: biochemical; details: 15 minutes, 20 mM Tris/HCl pH 8.5, 1 mM MgCl2, 1 mM CaCl2
# Method: Under each temperature condition, the nucleic-acid degradation activity was measured for 15 minutes in 20 mM of Tris/HCl at pH 8.5 that contained 1 mM of MgCl2 and 1 mM of CaCl2.
# [3] = tested on: Deoxyribonucleic acid sodium salt from salmon testes; assay: effects of monovalent salt on enzyme activity; type: biochemical; details: 10 mM Tris/HCl pH 8.5, 1 mM MgCl2, 25 degrees Celsius
# Method: Effects of monovalent salt on NucS and NucL were examined. At each concentration level of NaCl, the nucleic-acid degradation activity was measured at 25 degrees Celsius for 15 minutes by using, as substrate, Deoxyribonucleic acid sodium salt from salmon testes 0.4 mg/mL (manufactured by Sigma-Aldrich; Cat no. D1626-1G) in 10 mM of Tris/HCl at pH 8.5 that contained 1 mM of MgCl2 and 0 to 1,000 mM of NaCl. […] Substantially similar results were obtained even in the case of using KCl (referring to FIG. 8).
# [4] = tested on: Deoxyribonucleic acid sodium salt from salmon testes; assay: effects of divalent metal salt on enzyme activity; type: biochemical; details: 20 mM Tris/HCl pH 8.5, 1 mM CaCl2, 25 degrees Celsius
# Method: Effects of divalent metal salt on NucS and NucL were examined. NucS or NucL was added to a reaction solution that was obtained by adding, as substrate, Deoxyribonucleic acid sodium salt from salmon testes 0.4 mg/mL (manufactured by Sigma-Aldrich; Cat no. D1626-1G) into 20 mM of Tris/HCl at pH 8.5 that contained 1 mM of CaCl2 and 0 to 20 mM of MgCl2 or MnCl2; and the mixture was incubated in ice for 30 minutes. Then, the nucleic-acid degradation activity was measured at 25 degrees Celsius for 15 minutes. […] Incidentally, in the present test, in order to enhance the stability of the enzymes, 1 mM of CaCl2 was added to all the reaction solutions.
# [5] = tested on: Deoxyribonucleic acid sodium salt from salmon testes; assay: effects of phosphate on enzyme activity; type: biochemical
# Method: Effects of phosphate on NucS and NucL were examined. In 0 to 40 mM of potassium phosphate buffer at pH 8.5 that contained 1 mM of MgCl2 and 1 mM of CaCl2, the nucleic-acid degradation activity was measured at 25 degrees Celsius for 15 minutes by using, as substrate, Deoxyribonucleic acid sodium salt from salmon testes 0.4 mg/mL (manufactured by Sigma-Aldrich; Cat no. D1626-1G). […] Meanwhile, compared with NucS, NucL was excellent in resistance to phosphate. NucL could maintain 50 percent of activity even in the presence of 10 mM of potassium phosphate (referring to FIG. 11).
# [6] = tested on: RNA (mRNA derived from yeast); assay: degrading activity for RNA; type: biochemical
# [7] = phosphodiesterase activity test; type: biochemical; details: 100 mM Tris/HCl pH 8.5, 1 mM MgCl2, 1 mM CaCl2, 1 percent glycerol, 25 degrees Celsius
# Method: (§2) Bis(p-nitrophenyl)phosphate and p-nitrophenylphosphate were used as substrate. The method of Tomoyeda et al. (referring to Archives of biochemistry and biophysics. 131(1), 191-202, 1969; the contents of the document are incorporated herein by reference) was used. In 100 mM of Tris/HCl at pH 8.5 that contained 1 mM of MgCl2, 1 mM of CaCl2, and 1 percent of glycerol, with the use of a reaction solution that contained 0.2 percent of the above substrate, the phosphodiesterase activity and phosphatase activity of both enzymes were measured at 25 degrees Celsius.
# [8] = phosphatase activity test; type: biochemical; details: 100 mM Tris/HCl pH 8.5, 1 mM MgCl2, 1 mM CaCl2, 1 percent glycerol, 25 degrees Celsius
# Method: as §2
Molecule,specific activity of NucS relative to Benzonase (Salmon sperm DNA; same substrate),specific activity (Salmon sperm DNA),isoelectric point (pl) [1],optimum reaction temperature [2],"activity in dependence on NaCl concentration ([3]; 0 to 1,000 mM NaCl)",activity in the presence of 1 to 2 mM of MnCl2 compared with MgCl2 [4],requirement of divalent metal salt for activation [4],"phosphate concentration that made the enzyme inactive ([5]; potassium phosphate buffer pH 8.5, 1 mM MgCl2, 1 mM CaCl2, 25 degrees Celsius)",RNA degrading activity [6],phosphodiesterase activity [7],phosphatase activity [8],NaCl concentration up to which the enzyme remained active [3],"activity maintained in the presence of phosphate ([5]; 10 mM of potassium phosphate, pH 8.5, 25 degrees Celsius)"
B1,about 3.8 times,3.6×10^6 U/mg-protein,10,around 55 degrees Celsius,high when the concentration of NaCl was low,substantially the same level of activity,required divalent metal salt for activation,≥ 0.5 mM,showed RNA degrading activity,does not have,does not have,,
B2,,5.6×10^4 U/mg-protein,7.0,around 45 degrees Celsius,,,required divalent metal salt for activation,,did not show RNA degrading activity,has,has,"up to 1,000 mM",50%
